A value given as a limit tells only on which side of the number the result lay.

The target of this assay is goat IgG (goat). Put plainly: binding capacity used to set the particle load for goat serum; method not stated. The settings on record: scale: mg IgG per 5 g wet weight polymer particles.

For the substance “PhaC-(GB1)3 polymer particles (PHB polymer particles displaying (GB1)3, from plasmid pET-14b PhaC-(GB1)3) (from UniProt P23608 1-589; P06654 228-282; P06654 228-282; P06654 228-282)”, the IgG binding capacity was over 220.

For the origin of these results see US20130337528A1.
